Reference: the supplement of paper PMC12042874
± gives the uncertainty stated by the source.

Assay: amyloid nucleation score (Sup35N fusion, yeast selection) (log enrichment); library NNK1; higher = more nucleation; inactive = no reads after selection
Method in brief: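 DiMSum was used to calculate nucleation scores as log enrichment of output over input reads, centred on the mode score of non-aggregating sequences. Sequences with fewer than 100 input reads were not scored. Input and output came from Illumina sequencing of plasmid inserts in psi-negative yeast expressing peptides of 20 random codons fused to Sup35N, induced 24 hours with 100 μM copper sulfate and then grown 7 days at 30°C on medium lacking adenine and uracil.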

In order of rising amyloid nucleation score:
1. VGNMYYGSTSHNDT  -1.48 ± 1.7
2. VKMNVYYLIILNLWSYVMLG  -0.994 ± 1.4
3. VNVPHKTWIPDGDLRYYLTL  -0.891 ± 0.85
4. VHWRASCNMQLRADQRICIL  -0.84 ± 0.49
5. VIITLSRCSRDHTDVMGTFV  -0.81 ± 1.4
6. VLRHS  -0.779 ± 1
7. VMFVPLQSVYSAP  -0.766 ± 2.4
8. VIFYSLYSSVWFDSIYEGLT  -0.566 ± 1.5
9. VNSSKFKRVIYLV  -0.453 ± 0.27
10. VMGFHT  -0.402 ± 1.9
11. VLLFVVLHLNLSVHILQNFQ  -0.396 ± 0.54
12. VNGARRQFRRLMPCLEAWVS  -0.372 ± 0.32
13. VIGCAGSDLNLRSILCFILC  -0.364 ± 0.28
14. VIFDNGRLIEHCYERLTRPW  -0.327 ± 0.61
15. VGSHVRREFCELVYRS  -0.303 ± 0.44
16. VNWRGNSRVGIRNRFFCHSH  -0.28 ± 0.72
17. VLNEAYYDLYVYSHVSFSVL  -0.248 ± 0.42
18. VLSYL  -0.248 ± 0.38
19. VLEWRGPF  -0.239 ± 0.42
20. VIGYWGW  -0.164 ± 0.4
21. VIHGC  -0.14 ± 0.27
22. VNYSNWFSMADSFRSRSFSV  -0.104 ± 1.1
23. VGHNGIFYC  -0.063 ± 0.29
24. VLLSGDIRCDTSVSVTGLSH  -0.061 ± 0.3
25. VLCSCAMGYMFFFRAMMFR  -0.038 ± 0.38
26. VMYEVVHVNDDRCEAWLLSR  -0.018 ± 1.5
27. VLGPRWECMNRTYWRRTMVV  -0.011 ± 0.31
28. VMFPGKQHT  0.012 ± 0.91
29. VGYNNWTLVWGQGAMRVYSG  0.033 ± 0.34
30. VNCVGKLKFDE  0.05 ± 0.18
31. VHGYL  0.067 ± 0.59
32. VKFIGYFLRNTSSSSCTSDP  0.097 ± 0.58
33. VNNRRRVSVHDLRDATPGTF  0.099 ± 0.53
34. VLGLLITGDRLS  0.1 ± 1.4
35. VHRFQ  0.108 ± 0.61
36. VHFDRCDLWPGMM  0.136 ± 0.76
37. VLFKGHLIEV  0.138 ± 0.3
38. VLRLHAMRQQGICWSCVTGM  0.185 ± 0.39
39. VLCSSWLLWKDAI  0.218 ± 0.61
40. VQLRLMDRNREHYGYEESTR  0.22 ± 0.43
41. VHWIWGF  0.228 ± 0.5
42. VLPMTGYSRLRPIYRFMFFD  0.273 ± 0.44
43. VKRRLSHYAHMDGFVCNIR  0.286 ± 1.4
44. VLFLTGFGNHSFRTDQMATG  0.287 ± 0.64
45. VNVCYTMMEFVAGVYSGLLR  0.288 ± 0.29
46. VGSIVELSVHTTSDEKVSCR  0.316 ± 0.25
47. VLFLHSS  0.355 ± 0.49
48. VLKHFGFCMLPNISAY  0.386 ± 0.4
49. VGKVCRTFNRSMGETS  0.439 ± 0.92
50. VIIYLMARSLKVAH  0.453 ± 0.38
51. VKVCHSPKTSYDTVISRGNL  0.459 ± 0.44
52. VNHTKPVDILHC  0.521 ± 0.31
53. VGSPGCMGLVTLNHVP  0.522 ± 0.24
54. VLKRLRTYVYSIFW  0.543 ± 0.33
55. VHNNCRWFAGKFPLSRVVLR  0.553 ± 1.2
56. VLEISIDSDRAPMCGRRMDL  0.56 ± 1
57. VKYGTLYEGRNDLIDVR  0.635 ± 0.62
58. VNCLLDQQYR  0.746 ± 0.46
59. VGTLSRLSFYVVDAVSAQRG  0.756 ± 0.81
60. VIILPGGVCMMVC  0.843 ± 0.41
61. VIYLGRIVVEGSNLTSKSSA  0.85 ± 0.7
62. VNMSVIWGRVFASEKVYRAK  0.871 ± 0.56
63. VITRFYGSVGLRIPAIAVVL  0.886 ± 0.58
64. VLLYKSLAV  0.964 ± 0.15
65. VGSLFYKVRPGNNSFVTHIH  1.08 ± 0.88
66. VLCRINGVRS  1.1 ± 0.97
67. VPTCMRVYIRGNSHNGMLAA  1.1 ± 0.4
68. VNEREPYNCCFMRFDTCTSP  1.31 ± 0.63
69. VKCVKVLMLHSWF  1.53 ± 0.38
70. VLDQHPRDFESRGMVMANFY  1.55 ± 0.24
71. VLGMWIWQYRYGDDYFLLFV  2.7 ± 0.17
72. VNSGVNCMTVFVVVSLLSCG  2.98 ± 0.11
73. VLIFAKFYELPGDRRFGTGW  3.87 ± 0.11
74. VLYLMAAPIVMVYV  4.31 ± 0.061
75. VGKITESLLEQLKARHLFCH  4.41 ± 0.058
76. VIMFSFIS  5.04 ± 0.062
77. VPCDIYQCFYLSG  5.25 ± 0.094
78. VLINYLKMSDTCNFRLFLFK  5.916 ± 0.055
79. VNFFLFRQCKGSFAWNHTVA  6.336 ± 0.058
80. VIMQFFILCPHSVCISSENH  7.497 ± 0.049
81. VLGGCYNFLLCF  7.713 ± 0.059
82. VKTISCYMWFNVFN  7.81 ± 0.05
83. VQHRIISLALVYNTYNFSFS  8.018 ± 0.074
84. VLVLNLSLPKSLSNPSMRFG  8.028 ± 0.046
85. VLKHCWVGIFAQW  9.006 ± 0.052

For VIMPGRYVNLAHRLDACSVH, the amyloid nucleation score was “inactive”.
For VNILDLKTHLRR, the amyloid nucleation score was “inactive”.
